What was measured:
Xatr-Xatrip [1] = test: Kinase assay of Xatr-Xatrip complexes isolated from Xenopus egg extracts; type: biochemical; conditions: for activation of Xatr kinase activity toward PHAS-I: isolated Xatr-Xatrip complexes, 32P-ATP, result in words
From the text: Specifically, Applicants first isolated Xatr from egg extracts by pull-downs with FLAG-tagged Xenopus ATRIP (Xatrip). For these experiments, Applicants used both full-length Xatrip and an N-terminal truncation mutant (ΔN222) that supports normal Xatr-dependent activation of Xchk1 in egg extracts (Kumagai et al., 2004; Kim et al., 2005).
Applicants eluted the beads with FLAG peptide and mixed the eluates with a His6-tagged version of XtopBP1 that had been purified from baculovirus-infected insect cells (FIG. 1B). Finally, Applicants added ^32P-ATP and PHAS-I, a commonly used model substrate for ATR (Abraham, 2001).
Xatrip-FLAG and XatripΔN222-FLAG (20 ng/μl each) were incubated in interphase extracts containing anti-FLAG M2 antibody beads (Sigma) for 60 min at room temperature. The beads were isolated and washed twice with buffer A (10 mM HEPES-KOH (pH 7.5), 150 mM NaCl, 0.1% CHAPS, and 2.5 mM EGTA) and twice with HEPES-buffered saline (HBS; 10 mM HEPES-KOH (pH 7.5) and 150 mM NaCl). Xatr-Xatrip complexes were eluted in one-tenth the volume of the egg extract in HBS containing 0.1 mg/ml 3×-FLAG peptide (Sigma) for 60 min at 4° C. Eluates (2 μl) were used for kinase assays as described below.
(§1) Samples were incubated in 20 μl kinase buffer (50 mM Tris-HCl (pH 7.5), 10 mM MgCl2, 1 mM dithiothreitol, 100 μM nonradioactive ATP, and 100 μCi/ml [γ-^32P]ATP) containing 12.5 μg/ml PHAS-I or 50 μg/ml GST-Xmcm2 (62-122) for 30 min at room temperature. GST-XtopBP1 (972-1279) was added at a final concentration of 100 μg/ml unless indicated otherwise. In some cases, GST-Xmcm2 (62-122), GST-Xchk1 (306-352), or full-length Xchk1-Myc-His6 were used as substrates with only […] nonradioactive ATP. Reactions were terminated by boiling in gel sample buffer.

Xchk1 [2] = test: Checkpoint-dependent phosphorylation of Xchk1 in XtopBP1-depleted egg extracts with aphidicolin and sperm nuclei; type: biochemical, Xenopus; conditions: added back to XtopBP1-depleted extract, aphidicolin
From the text: Applicants proceeded to remove endogenous XtopBP1 from egg extracts by immunodepletion with anti-XtopBP1 antibodies (FIG. 7C). In parallel, Applicants used control antibodies to prepare mock-depleted extract. Next, Applicants added back wild-type His6-XtopBP1 or the His6-XtopBP1-W1138R mutant to aliquots of the XtopBP1-depleted extract. Finally, Applicants added aphidicolin and demembranated Xenopus sperm nuclei to the various extracts in order to create stalled replication forks and then examined phosphorylation of Xchk1 (FIG. 7D).
(§2) Extracts from Xenopus eggs were prepared as described (Kumagai and Dunphy, 2000). A DNA replication checkpoint response was induced by addition of 50 μg/ml aphidicolin into extracts containing demembranated sperm nuclei (3000 per μl) (Kumagai and Dunphy, 2000). To monitor DNA replication, extracts containing 1000 sperm nuclei/μl were incubated with [α-^32P]dATP (Yoo et al., 2004).
Xatr and Xatrip were immunodepleted as described (Kumagai et al., 2004). For immunodepletion of XtopBP1, we incubated 100 μl egg extract twice for 60 min with 10 μl Affiprep protein A beads (BioRad) containing 35 μg anti-XtopBP1 antibodies.

[3] = tested on: chromosomal DNA replication; test: Chromosomal DNA replication in XtopBP1-depleted egg extracts; type: biochemical, Xenopus; conditions: XtopBP1-depleted extracts with protein added back
Protocol: In conjunction with these experiments, Applicants also examined chromosomal DNA replication in extracts containing either wild-type or W1138R His6-XtopBP1. […] Therefore, the defect in phosphorylation of Xchk1 in the extracts containing this mutant is not due to a failure in the assembly of DNA replication forks.
as §2

Xatm = test: Kinase assay of immunoprecipitated Xatm toward PHAS-I; type: biochemical, Xenopus; conditions: Xatm immunoprecipitated from egg extracts
Protocol: Applicants have also shown that TopBP1 is a specific activator of ATR and not a general activator of the PIKK family. Specifically, Applicants immunoprecipitated both Xatr and Xatm in parallel from Xenopus egg extracts and then incubated the immunoprecipitates with GST-XtopBP1 (972-1279) (FIG. 3F).
as §1

Xatr-Xatrip [4] = test: Glutathione bead pull-down of Xatr and Xatrip from egg extracts; type: binding, Xenopus
Protocol: (§3) Specifically, Applicants incubated glutathione beads containing GST-XtopBP1 (972-1279) in egg extracts, reisolated the beads, and performed immunoblotting for both Xatr and Xatrip. […] In addition, in other experiments, there was no binding of Xatr or Xatrip to beads containing GST fusions of the 1-348, 333-646, or 623-984 segments from XtopBP1 (data not shown).
(§4) Applicants also tested to see if the association of XtopBP1 with Xatr depends upon Xatrip. For this experiment, Applicants removed endogenous Xatrip from egg extracts by immunodepletion with anti-Xatrip antibodies. As described previously, this procedure leaves behind approximately 30% of the endogenous Xatr, the fraction that is not in a complex with Xatrip (Kumagai et al., 2004). Next, Applicants added GST-XtopBP1 (972-1279) to the Xatrip-depleted extracts and to mock-depleted extracts that had been prepared in parallel.

human ATR [5] = target: T1, human ATR (Homo sapiens, UniProt Q13535); test: Kinase assay of recombinant human FLAG-ATR against S92 of GST-Xmcm2 (62-122); type: biochemical; conditions: wild-type human FLAG-ATR from U2OS nuclear extracts
T1 construct: expressed in transfected cells; host or cells: U2OS GW33 cells (doxycycline-inducible), nuclear extract, anti-FLAG purification
Protocol: (§5) Specifically, Applicants isolated wild-type and kinase-deficient versions of FLAG-tagged human ATR from nuclear extracts of U2OS cells that conditionally express these proteins (FIG. 5C). The recombinant ATR proteins were purified with anti-FLAG magnetic beads under conditions that preserve the binding of endogenous ATRIP (Ünsal-Kacmaz and Sancar, 2004). Next, Applicants incubated both the wild-type and kinase-deficient FLAG-ATR preparations in the absence or presence of GST-XtopBP1 (972-1279), and measured kinase activity against S92 of the GST-Xmcm2 (62-122) peptide.
as §1
(§6) U2OS cells conditionally expressing wild-type (GW33) or kinase-deficient (GK41) human FLAG-ATR were cultured as described (Nghiem et al., 2001). Cells were induced with 1 μg/ml doxycycline for 48 hr. Nuclear extracts were prepared as described (Dignam et al., 1983) except that nuclei were lysed by brief sonication and the concentration of NaCl in the nuclear isolation buffer was reduced to 350 mM in order to preserve the binding of endogenous ATRIP to recombinant ATR. FLAG-ATR proteins were isolated by an overnight incubation with anti-FLAG antibodies bound to protein G-magnetic beads (Dynal) and eluted with 3×-FLAG peptide.

human ATR [6] = test: as above; type: biochemical
Protocol: as §5, §1, §6

Xchk1 [7] = test: Ectopic phosphorylation of 35S-Xchk1 in Xenopus egg extracts without checkpoint-inducing DNA; type: biochemical; conditions: 35S-Xchk1, tautomycin, no checkpoint-inducing DNA template
Protocol: Because the GST-XtopBP1 (972-1279) fragment could activate Xatr in vitro without the inclusion of DNA, Applicants reasoned that ectopic addition of this fragment to Xenopus egg extracts might also be able to trigger the Xatr-dependent phosphorylation of Xchk1 even in the absence of a checkpoint-inducing DNA template.
as §2

Xatr-Xatrip [8] = target: Xatr-Xatrip (Xenopus laevis, UniProt Q9DE14); test: Glutathione bead pull-down of Xatr and Xatrip from egg extracts; type: binding; set-up: incubated glutathione beads containing GST-XtopBP1 (972-1279) in egg extracts, reisolated the beads, and performed immunoblotting for both Xatr and Xatrip; Applicants removed endogenous Xatrip from egg extracts by immunodepletion with anti-Xatrip antibodies; from tissue; host or cells: Xenopus egg extract; conditions: Xatrip-depleted extracts
Protocol: as §3, §4

Xatr-Xatrip, sequence (Q9DE14 whole entry, the tested form may be a part): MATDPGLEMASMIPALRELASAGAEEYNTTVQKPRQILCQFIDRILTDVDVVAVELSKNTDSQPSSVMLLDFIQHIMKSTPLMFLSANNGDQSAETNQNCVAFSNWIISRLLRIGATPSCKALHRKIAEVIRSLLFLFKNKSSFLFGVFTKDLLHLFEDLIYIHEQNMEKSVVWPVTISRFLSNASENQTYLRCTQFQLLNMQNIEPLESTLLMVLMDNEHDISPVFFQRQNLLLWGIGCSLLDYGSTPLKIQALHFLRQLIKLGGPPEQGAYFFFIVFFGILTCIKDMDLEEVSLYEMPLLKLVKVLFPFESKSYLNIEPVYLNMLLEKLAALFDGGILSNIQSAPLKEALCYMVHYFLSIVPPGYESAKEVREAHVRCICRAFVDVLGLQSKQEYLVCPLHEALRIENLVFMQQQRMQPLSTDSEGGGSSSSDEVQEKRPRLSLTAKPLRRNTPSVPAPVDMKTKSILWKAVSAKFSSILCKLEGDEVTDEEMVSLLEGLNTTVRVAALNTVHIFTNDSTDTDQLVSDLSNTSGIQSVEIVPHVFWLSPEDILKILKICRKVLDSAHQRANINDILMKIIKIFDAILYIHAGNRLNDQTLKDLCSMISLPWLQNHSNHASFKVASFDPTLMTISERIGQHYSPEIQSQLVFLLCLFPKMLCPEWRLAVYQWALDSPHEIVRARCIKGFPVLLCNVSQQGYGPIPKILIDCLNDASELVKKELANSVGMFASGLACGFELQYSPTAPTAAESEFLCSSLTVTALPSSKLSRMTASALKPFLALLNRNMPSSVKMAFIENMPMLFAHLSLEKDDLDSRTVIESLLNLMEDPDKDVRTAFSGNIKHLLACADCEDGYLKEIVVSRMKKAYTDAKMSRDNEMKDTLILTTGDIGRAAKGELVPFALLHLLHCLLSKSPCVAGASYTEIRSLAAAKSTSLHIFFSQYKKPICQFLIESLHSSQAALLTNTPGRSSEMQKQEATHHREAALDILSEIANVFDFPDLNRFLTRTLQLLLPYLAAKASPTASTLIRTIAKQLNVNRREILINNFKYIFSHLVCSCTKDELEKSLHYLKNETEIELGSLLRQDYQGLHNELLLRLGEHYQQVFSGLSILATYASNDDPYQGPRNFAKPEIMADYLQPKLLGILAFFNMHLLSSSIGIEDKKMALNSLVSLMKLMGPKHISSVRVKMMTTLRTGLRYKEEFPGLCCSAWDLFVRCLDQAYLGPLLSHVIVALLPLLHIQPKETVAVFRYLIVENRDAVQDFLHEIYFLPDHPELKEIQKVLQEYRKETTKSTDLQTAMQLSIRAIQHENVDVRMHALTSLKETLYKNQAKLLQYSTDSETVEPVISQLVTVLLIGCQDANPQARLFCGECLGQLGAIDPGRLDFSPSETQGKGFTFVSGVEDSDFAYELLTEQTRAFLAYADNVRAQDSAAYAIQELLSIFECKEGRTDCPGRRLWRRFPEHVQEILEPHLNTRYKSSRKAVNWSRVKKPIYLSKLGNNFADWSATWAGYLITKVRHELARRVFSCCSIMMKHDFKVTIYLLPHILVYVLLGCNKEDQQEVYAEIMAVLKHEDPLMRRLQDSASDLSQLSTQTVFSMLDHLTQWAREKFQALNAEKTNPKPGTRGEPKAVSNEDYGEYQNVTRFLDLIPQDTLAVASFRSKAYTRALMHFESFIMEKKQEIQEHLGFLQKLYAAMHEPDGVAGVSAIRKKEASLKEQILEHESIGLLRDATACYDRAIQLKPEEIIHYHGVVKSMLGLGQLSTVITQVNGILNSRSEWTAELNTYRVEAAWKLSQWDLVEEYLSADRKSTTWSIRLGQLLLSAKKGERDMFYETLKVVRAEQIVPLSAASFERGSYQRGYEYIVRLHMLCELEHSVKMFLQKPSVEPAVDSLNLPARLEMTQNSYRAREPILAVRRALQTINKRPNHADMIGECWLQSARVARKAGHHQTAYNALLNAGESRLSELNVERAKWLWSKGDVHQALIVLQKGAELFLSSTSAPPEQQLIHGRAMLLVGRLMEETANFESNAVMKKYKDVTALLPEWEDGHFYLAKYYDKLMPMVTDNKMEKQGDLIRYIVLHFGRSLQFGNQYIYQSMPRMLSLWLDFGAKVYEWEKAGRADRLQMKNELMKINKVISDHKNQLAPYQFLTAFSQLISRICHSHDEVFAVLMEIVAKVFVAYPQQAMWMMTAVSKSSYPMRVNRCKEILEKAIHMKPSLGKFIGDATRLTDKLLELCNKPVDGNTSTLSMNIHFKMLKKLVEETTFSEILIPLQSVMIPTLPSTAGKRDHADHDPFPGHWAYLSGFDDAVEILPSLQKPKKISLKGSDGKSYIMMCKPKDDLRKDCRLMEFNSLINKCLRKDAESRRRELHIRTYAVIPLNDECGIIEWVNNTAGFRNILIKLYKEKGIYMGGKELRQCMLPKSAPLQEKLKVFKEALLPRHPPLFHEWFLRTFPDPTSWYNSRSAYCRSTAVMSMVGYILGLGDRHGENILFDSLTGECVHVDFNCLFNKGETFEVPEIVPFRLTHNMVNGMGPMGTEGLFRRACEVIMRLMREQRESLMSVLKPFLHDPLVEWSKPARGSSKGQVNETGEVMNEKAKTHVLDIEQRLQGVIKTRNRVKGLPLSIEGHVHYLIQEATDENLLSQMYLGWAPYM
Xatr-Xatrip (Xenopus laevis, UniProt Q9DE14), sequence (Q9DE14 whole entry): as the sequence (Q9DE14 whole entry, the tested form may be a part) above

Row | Molecule | activation of Xatr kinase activity toward PHAS-I (Xatr-Xatrip [1]) | rescue of phosphorylation of Xchk1 (Xchk1 [2]) | chromosomal DNA replication [3] | activation of immunoprecipitated Xatr (Xatr-Xatrip [1]; Xatr immunoprecipitated from egg extracts, PHAS-I) | Xatr-dependent phosphorylation of GST-Xmcm2 (62-122) peptide (Xatr-Xatrip [1]; substrate GST-Xmcm2 (62-122), S92) | phosphorylation of GST-Xchk1 (306-352) peptide and full-length Xchk1-Myc-His6 on S344 (Xatr-Xatrip [1]; substrates GST-Xchk1 (306-352) and Xchk1-Myc-His6) | activation of Xatm (Xatm) | binding of Xatr to the XtopBP1 fragment (Xatr-Xatrip [4]; Xatrip-depleted extracts plus recombinant XatripΔN222-FLAG) | binding of Xatr and Xatrip to glutathione beads (Xatr-Xatrip [4]; egg extracts, immunoblotting) | binding of Xatr to the XtopBP1 fragment (Xatr-Xatrip [4]; mock-depleted extracts) | kinase activity of wild-type FLAG-ATR (human ATR [5]) | kinase activity in mock preparation of magnetic beads (human ATR [6]; beads lacking anti-FLAG antibodies) | activity of kinase-deficient FLAG-ATR (human ATR [6]; kinase-deficient human FLAG-ATR) | phosphorylation of Xchk1 in egg extracts (Xchk1 [7]) | binding of Xatr to the XtopBP1 fragment (Xatr-Xatrip [8])
1 | His6-XtopBP1-W1138R: version of full-length His6-XtopBP1 with the W1138R mutation | unable to activate Xatr | could not restore the phosphorylation of Xchk1 | not inhibited | – | – | – | – | – | – | – | – | – | – | – | –
2 | GST-XtopBP1 (972-1279): GST fusion protein containing conserved region between BRCT domains VI and VII (residues 972-1279) of XtopBP1 (protein, left off: a dimerising Fc or GST, GST fusion protein containing conserved region between BRCT domains VI and VII (residues 972-1279) of XtopBP1) EQQKRVPEALYPHTYNPKMSLDISAVQDGSYTASKFSADTSLQQDENSELQLQQNNKFGETSDDQVKKAAGDGNPQNPSKDVKGALTQTLEMRENFQRQLQEFMSATSVVKPRGSVGRAGFDNSPCTPEGARSTRNGRSRVLEALRQSRQAMTDLNTEPSQNEQIIWDDPTAREERAKLVSNLQWPDSPSQYSEQLQHNMNDAGGNYTPAKESLTDSEIAELEACEFEPKSAMRTPVIENNLQSPTKPDHLTPTPQAPSIAFPLANPPVAPQPREKPVQPFSKEETLKERRFQLSSLDPQERIDYSQL | induced activation of Xatr as effectively as full-length XtopBP1 | – | – | strong activation | induced a strong Xatr-dependent phosphorylation | readily induced phosphorylation | no activation of Xatm | restore the binding | could clearly detect binding | good binding | large increase | did not induce any kinase activity | neither the intact nor W1138R mutant form of GST-XtopBP1 (972-1279) had any effect | very robust phosphorylation | no binding
